The text below walks through data of paper PMC6312923 (Life Science Alliance, 2018).

The target of one assay is T1, recombinant PCNA (Homo sapiens, UniProt P12004).
T1 construct: made in house; host or cells: Escherichia coli BL21 (DE3)
Nature of the assay: FP assay, direct binding of TAMRA-labelled PIP box peptides to PCNA.

The next assay concerns PCNA. Nature of the assay: X-ray crystal structure of PCNA/PIP peptide complexes. The format is binding, human. To be noted: PCNA trimer; Cdt2 3.5 Å (6QC0), Cdt1 3.4 Å (6QCG). The procedure: The protein solution at 17 mg·ml^−1 was pre-incubated with an equimolar amount of peptide, and 0.1 μl of this solution was mixed with 0.1 μl of reservoir solution and equilibrated against a 30 μl reservoir. Crystals for the Cdt2 complex were obtained in 10% (wt/vol) PEG 6000 and 100 mM MES/HCl, pH 6.0. Crystals for the Cdt1 complex were obtained in 15% (wt/vol) PEG 400, 100 mM calcium acetate, and 100 mM MES/HCl, pH 6.0. Crystals appeared at 4°C within 72 h. Crystals were briefly transferred to a cryo-protectant solution containing the reservoir solution and 25% (wt/vol) PEG200 and vitrified by dipping in liquid nitrogen.
X-ray data were collected on beamline ID29 at the European Synchrotron Radiation Facility. The images were integrated with XDS ([Kabsch, 2010]) and merged and scaled with AIMLESS ([Evans, 2011]). […] The models were built using COOT ([Emsley et al, 2010]) and refined with REFMAC ([Murshudov et al, 2011]) in iterative cycles. Model re-building and refinement parameter adjustment were performed in PDB-REDO ([Joosten et al, 2014]); homology-based hydrogen bond restraints ([van Beusekom et al, 2018]) were used at some stages of the procedure. The quality of the models was evaluated by MOLPROBITY ([Chen et al, 2010]). […]

Assay [1] has as its target T2, PCNA (recombinant, for the in vitro binding assays; free or loaded on DNA) (human, UniProt P12004 1-261).
T2 construct: PCNA, human, purified essentially as a trimer as described (Fukuda et al, 1995); also called free PCNA; PCNA^(on DNA); source: E. coli Rosetta(DE3) transformed with pT7-PCNA, purified (Resource Q, Superdex 200, Mono Q)
Nature of the assay: pull-down; PCNA loaded by RFC (2 mM ATP, 37°C, 1 h) on nicked circular DNA beads, washed; beads incubated with purified Cdt1-3FLAG or CRL4^Cdt2 alone at 4°C for 1 h in HBS buffer (10 mM Hepes pH 7.4, 10 mM MgCl2, 0.2 mM EDTA, 0.05% Tween 20, 0.15 M NaCl); bound proteins by Western blot. The settings on record: both partners purified. Background: A western blot detects proteins with antibodies after separation by electrophoresis.

The next assay relates to free PCNA. Nature of the assay: Binding of free PCNA to Cdt1 or CRL4^Cdt2 on anti-FLAG beads. Set-up: species or system human. To be noted: 2 h at 4°C, Western blotting, three independent experiments. The text has this:
FLAG-tagged Cdt1 (Cdt1-3FLAG) and CRL4^Cdt2 (Cdt2-3FLAG) were expressed in insect cells and purified on anti-FLAG resin (Fig 5A).

Assay [2] deals with PCNA loaded on nicked circular DNA (PCNA^on DNA). Nature of the assay: Binding of purified Cdt1 and CRL4^Cdt2 to PCNA loaded on ncDNA beads. To be noted: RFC +, 4°C 1 h, n = 3 or n > 3. Set-up: species or system human. The procedure:
In our in vitro conditions, three molecules of PCNA trimer were loaded on one plasmid DNA. […] The interaction was not mediated by RFC proteins bound on ncDNA (Fig 5D, lane 6).
Figure S5. […] The beads were then incubated with Cdt1 or CRL4^Cdt2 (Step 2; binding). (B) RFC-dependent loading of PCNA.
Closed circular (cc) DNA beads were prepared as described ([Higashi et al, 2012]). Briefly, single-stranded DNA templates prepared using pBluescript II KS(−) were annealed with a biotinated oligonucleotide primer (5′-[…] [biotin-dT][…]-3′). After second-strand synthesis and ligation, covalently cc double-stranded DNA was purified by CsCl/EtBr density gradient centrifugation, incubated with streptavidin, and bound to biotin-sepharose beads to produce the cc DNA beads (around 100 ng per 1 μl bed volume of beads). A single nick was introduced by Nb.BbvCI (New England Biolabs) treatment to produce the ncDNA beads. As control beads, biotin-sepharose beads were incubated with streptavidin alone (sa-beads).
The sa-beads were treated in the same way and used as control beads. The beads were incubated with Cdt1 or CRL4^Cdt2 alone at 4°C for 1 h and washed with HBS buffer. The bound proteins were analysed on Western blotting. […] The purified nc DNA was run on 0.8% agarose gel in 1× TBE (Tris-borate-EDTA) buffer and detected with ethidium bromide.

Assay [3] concerns UV-C–damaged sites in MCF7 cells. Nature of the assay: FRAP of GFP-tagged proteins at sites of local UV-C damage in MCF7 cells. In kind it is cell-based, human. To be noted: GFP-tagged, UV-C 50 J/m^2.

T2 sequence (P12004 whole entry): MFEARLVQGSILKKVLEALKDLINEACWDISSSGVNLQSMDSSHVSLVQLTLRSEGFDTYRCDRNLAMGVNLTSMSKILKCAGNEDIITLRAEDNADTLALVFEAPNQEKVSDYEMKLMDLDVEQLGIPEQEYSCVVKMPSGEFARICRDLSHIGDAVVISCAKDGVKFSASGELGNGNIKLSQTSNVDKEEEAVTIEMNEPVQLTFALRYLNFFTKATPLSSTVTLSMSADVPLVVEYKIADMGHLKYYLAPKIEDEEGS
T1 sequence (P12004 whole entry): as above

On to “MEQRRVTDFFARRR [Cdt1^PIP, Cdt1 PIP box peptide (1–14)]”, for which the “relative affinity for PCNA, Cdt2^PIP versus Cdt1^PIP” value at recombinant PCNA is listed as “two orders of magnitude weaker”. Moreover, the “binding stoichiometry in crystal” value with PCNA was “one peptide bound per monomer”.

B1: Cdt1-3FLAG (natural protein, human, UniProt Q9H211 1-546, looked up)
chain: MEQRRVTDFFARRRPGPPRIAPPKLACRTPSPARPALRAPASATSGSRKRARPPAAPGRDQARPPARRRLRLSVDEVSSPSTPEAPDIPACPSPGQKIKKSTPAAGQPPHLTSAQDQDTISELASCLQRARELGARVRALKASAQDAGESCTPEAEGRPEEPCGEKAPAYQRFHALAQPGLPGLVLPYKYQVLAEMFRSMDTIVGMLHNRSETPTFAKVQRGVQDMMRRRFEECNVGQIKTVYPASYRFRQERSVPTFKDGTRRSDYQLTIEPLLEQEADGAAPQLTASRLLQRRQIFSQKLVEHVKEHHKAFLASLSPAMVVPEDQLTRWHPRFNVDEVPDIEPAALPQPPATEKLTTAQEVLARARNLISPRMEKALSQLALRSAAPSSPGSPRPALPATPPATPPAASPSALKGVSQDLLERIRAKEAQKQLAQMTRCPEQEQRLQRLERLPELARVLRSVFVSERKPALSMEVACARMVGSCCTIMSPGEMEKHLLLLSELLPDWLSLHRIRTDTYVKLDKAADLAHITARLAHQTRAEEGL
notes: Cdt1, human; also called FLAG-tagged Cdt1; Cdt1-3FLAG (WT); source: Sf21 insect cells (baculovirus), purified (DEAE flowthrough, anti-FLAG resin, 3× FLAG peptide elution); not shown: 3FLAG, C-terminal, kept
Take B1: the “stoichiometry N” value in assay [1] is 2.04 Cdt1 molecules on one PCNA trimer.

B2: Cdt1: DNA replication licensing factor, FLAG-tagged, purified from insect cells; GFP-tagged in FRAP (protein, UniProt Q9H211 1-546, looked up)
DNA replication factor Cdt1: B1 chain
modifications: FLAG or eGFP tag
notes: DNA replication licensing factor, FLAG-tagged, purified from insect cells; GFP-tagged in FRAP
For the molecule B2, the “binding of free PCNA to protein beads” value in the assay on free PCNA was “PCNA was detected”. In assay [2], the bound protein is 301 fmol. Also, the “FRAP behaviour at UV-C–damaged sites” value in assay [3] is recorded as “dynamic interactions”.
